# Measurements published in the supplement of paper PMC12764529.
# ± gives the half width of the 95% confidence interval.
# Assay: folding stability dG unfold from chymotrypsin proteolysis; higher = more stable
# Method in brief: (§1)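 Unfolding free energy was derived, per protease or combined, against a sequence-predicted unfolded-state K50 and a shared folded-state K50, starting from K50 inferred by Bayesian fitting of sequencing counts. Digestion with trypsin and chymotrypsin was carried out on designed mini-proteins under 80 residues without cysteine in a PA-tagged cDNA display construct. Only designs with AlphaFold2 dimer inter-PAE above 15 were kept.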
row,Sequence,folding stability dG unfold [kcal/mol]
1,SAGGSAGGSAGGKFKIVKVEKVKNENGEEYVRVYLYNKDGKPVKEFTMSKEELEKLLKELSAGGSAGGSAGG [r7_891_TrROS_Hall],2.96 ± 0.051
2,SAGGEEGKPKWVEMWIFIPKEILEDIKQGEPLTVKQIAQKIGFPPNIEVKIIEREGDYIYVRITIPVSAGGS [r16_679_TrROS],4.66 ± 0.11
3,SAGGSAGGSAGGDGIVVPVDEAVGLIKELGLKVVGVFEHPGGPPAVLFELPDGRLLLAESAGGSAGGSAGGS [r10_210_TrMRF],0.792 ± 0.042
4,SAGGSAGGSAGTLRLEVELKLRVRNPATREWQEVTLRLEVEFEPAPPVLVRDANGRLLLLSAGGSAGGSAGG [r11_307_TrROS_Hall],3.434 ± 0.021
5,SIFRIRMPGNREFRIFIPPDGMVNVSMPNGKKHTHPFKDKEDAKEIADVLSKHFPNMPVEIEPIPPDDIKSA [r9_1206_TrROS],0.166 ± 0.91
6,SAGGVPVSVEVDPRGEVTITNPVNGSSLVIPVPPDAEVTVVSLPPSSVTVRVTVGGEERDIVLPPSSVSAGG [r19_309_JUSTAS],0.662 ± 0.034
7,SAGGSAGGSSPLIEKLRKDPNVTKIEIDTVKNTTYIYTPNKIYIINSKGEIEKVEEVSPEILKSAGGSAGGS [r12_895_JUSTAS],2.36 ± 0.072
8,SAGGSAGGSKKKTIVILVPPGMSVDAIKKKLKELGIKVKIVPAPPVKVKVDEKTNELKVEKVTSAGGSAGGS [r12_80_TrROS_Hall],0.618 ± 0.086
9,SAGGSAGGPVWKIRFPDDGKPYEFHINPNHGMIEVEDPKDGEPKGTVPMPINQLLEKGMEVEPVSAGGSAGG [r6_832_TrROS],-0.45 ± 0.26
10,SAGGSAGGSMSPSSSYTIEKVSEDPSRGVITLKITYPTGESITLKLSPADEEKAEEEAKKLLESAGGSAGGS [r20_167_JUSTAS],1.63 ± 0.1
11,SKMKIKIEVEKVEDGYLKITITAESKEEAEKAIKELAKKLFGIEEVKVEYDKETKKITVEIIIRPPGEKVSA [r9_1120_TrROS_Hall],3.61 ± 0.18
12,SAGKKKKIKVKIEIRVKKKYKTKDGKEVEEKEETITVEIEMTLEELKEAIKKLPENVEITKITKIEKESAGG [r19_114_TrROS_Hall],2.42 ± 0.058
13,SAGGSAGGSGMEKIVVEVKFPDGTVETYEFPAGVPVNIDPAVTGDVKITTLDPEGKTTEYVLKSAGGSAGGS [r12_380_JUSTAS],-0.297 ± 0.2
14,SAGGPLTEEQLKEQAKQIKDQLAKEFADMNGFPVTEIDDVEVVPDGWISIEIEYPGMGMPYTITIPWSAGGS [r16_622_TrROS],1.02 ± 0.16
15,SAGGSHEYTHEYRIPGGYAIRIKTKWRFNPGNNNIQIEEPDIELVPLPPVPPPPVPPEDADKNGIPPDDSAG [r5_393_TrROS],2.29 ± 0.12
16,SAGGSAGGSAGGSDRVEVELIFKFPNGFYVVIKWEIDPDEPGKIEMEIAIFDPDGKPIWSAGGSAGGSAGGS [r4_297_TrROS],4.69 ± 0.12
17,SAGGSAGGSAPPGQQLRVRIRIYNPNNGEPKREREFPGMTVDDLKEWAQKNGWRIREIEVDSAGGSAGGSAG [r3_423_TrROS],1.49 ± 0.2
18,SAGALPPDQVVPIPVLVRLSEDDPELREAIERGEVVEFELPGPLRLLAEFEPLPEDLVLVTLYLEVPEGSAG [r5_223_TrMRF],2.3 ± 0.062
19,SAGFKIVDVEPTDGRLEITIPIDKPGDALMFMVPFPNAKITPDPNGKITITIPPGGWYMIMIRLKKDASAGG [r19_227_TrROS],2.67 ± 0.091
20,SKATVLPNGEVVVTAEATFTLPDGTKVTVRVEVRIGPDGTLRPGVTVTVEPVPPPEKPLNIDFDPVTLPKSA [r9_1168_TrMRF],2.91 ± 0.21
21,SAGGSAGGSAGGSKLKIELNEDGTLRIVNEDTNEVYEIKLELPPPPPVETEVKYVSLEDLSAGGSAGGSAGG [r11_352_TrROS_Hall],0.842 ± 0.26

# Assay: folding stability dG unfold from trypsin proteolysis; higher = more stable
# Method in brief: as §1
row,Sequence,folding stability dG unfold [kcal/mol]
1,SAGGPNIRIDINLMPHPGKPYIMVRIEIPNGYKREIMFNPDDGKISIEIRYPGKEEKIEFPLDDIKPISAGG [r13_328_TrROS],3.48 ± 0.5
2,SAGGSMRLVERTFVPVKTFTFLSTFNLIQPPGVPVPTFTTLTVVFTPVFTRLVEVVTEPPGRVVEVLLSAGG [r13_148_JUSTAS],3.73 ± 0.15
3,SAGGSAGGSAGGIPPDVKVKPVATVNLTAEVEVTVLGPEGGPTFTVKVEVKVVFAESTDSAGGSAGGSAGGS [r10_758_TrMRF],1.51 ± 0.37
4,SAVITLPDGTTVPSTVVEETETPDGVRITVRTERDGVLEIVDLYEPPGGEVTVLSTEVVPVPPGDPALESAG [r14_13_JUSTAS],0.518 ± 0.028
5,SAGGSAGGSAGGSKKTITLDIKVNGYLVKVKLNLETNKLEIVEVYKVSPEKKKLSPKDKSAGGSAGGSAGGS [r4_21_TrROS_Hall],0.824 ± 0.029
6,SAGGSAGGSAGGGKVTAVVTFTGPDGSKVVLAFHPDGSVTVRYFDPNGELVGEKTFAGAGSAGGSAGGSAGG [r7_544_TrMRF],3.2 ± 0.19
7,SAGGSAGGSMVLRIKTEDGEEIEIELPEELKELSAEEIAELLGLDEVKVVEVEVVEPEEEEEESAGGSAGGS [r12_411_TrROS_Hall],0.256 ± 0.043
8,SAGGSAGGSALPDLEFPFELVEEVEVPVYDPLSDEVLGTVRVWKVRVPGGPELTLVEFDPESAGGSAGGSAG [r3_166_TrMRF],1.27 ± 0.017
9,IRGMPVEEIKEIARDFFRKHGMKVTTVEIVPTPNGMTQVDIEIEPPDKGRRYRIDIYVPEDGMVQIDIEPYS [r1_460_TrROS],2.23 ± 0.071
10,SAGGSAGGMPTLVVLREVAEKLEEGQRVRVRFRIPGTDEWVEAEVPINDPELVINFENPEVEEASAGGSAGG [r6_401_TrMRF],1.06 ± 0.042
11,SAMVIEIEIPSEELLKKLEELLPPGARIKKVEIVKENGKVKIIVELEPGMSEEEKERIKKKIEELLKEESAG [r14_306_TrROS_Hall],4.92 ± 0.46
12,SAGGERERLLTLEVEIDVPPGVSPEEIAARLAALLPPGAEIERVEIRYDPATRKITVRVVIRLPEGLSAGGS [r16_396_TrROS_Hall],3.59 ± 0.25
13,SAGGSAMIEVKIEVPDDASEEEKAELAEKIKKEIKASGVEPTENGIPVKKSLENVEVKVTFLKKKKSAGGSA [r15_717_JUSTAS],-0.469 ± 0.2
14,SAGGSAGGMEIRVERDPESDLLVAELKIDGHDAIAVFDPNRPGHIEIGTTNEIPIEEIIDALLSSAGGSAGG [r6_195_TrMRF],0.683 ± 0.038
15,SAGGSAGGSAMKVTVEEEELEVEPGETVKIKIRLPNGEEREFSLEDLKKLPPGEAEVEIERVSAGGSAGGSA [r18_394_TrROS_Hall],0.583 ± 0.076
16,SAGGSAGGSAGGSSMTLVTEETELPSPLRKVTKYTIDPKNPGKITSETTWYDPEGKPLGSAGGSAGGSAGGS [r4_297_JUSTAS],-0.441 ± 0.33
17,SAGGGMTVVRITHPDGTPLTIEYDPNNPVATVHFADGTTETIPMPPDKTIEDLIAKLPEDAEVEVHDRSAGG [r13_696_JUSTAS],0.321 ± 0.078
18,SAGGSAGGMIEVYEEGDKLTVLNPGPDPNKKVTVTLDNGSATSSRIPEGTYVTTATVAPDATLKSAGGSAGG [r6_70_JUSTAS],0.14 ± 0.028
19,SAGGSAGGSVKPGEKVLVRVRNPATGRWEEVVATVNEDGSITIYNKETGKTETIPLKDIELVPSAGGSAGGS [r12_726_TrROS_Hall],4.6 ± 0.17
20,SAGGSAGGGLIEIIPNTLKAKIINPKTGKVEEIEFSNIDELIEEIKKKYPNVDFKILPNGIILGSAGGSAGG [r6_286_TrMRF],3.14 ± 0.16
21,SAGGSEFEIIEVKDGTVVIRNKKTNELITVKVKIEVKPPPPVVVKKPGEEVTVKEGKKVTVLKEGEKKSAGG [r13_322_TrROS_Hall],-0.188 ± 0.18

row,Sequence,folding stability dG unfold [kcal/mol]
1,SAGGSAGGSAGGKFKIVKVEKVKNENGEEYVRVYLYNKDGKPVKEFTMSKEELEKLLKELSAGGSAGGSAGG [r7_891_TrROS_Hall],2.72 ± 0.11
2,SAGGEEGKPKWVEMWIFIPKEILEDIKQGEPLTVKQIAQKIGFPPNIEVKIIEREGDYIYVRITIPVSAGGS [r16_679_TrROS],4.53 ± 0.25
3,SAGGSAGGSAGGDGIVVPVDEAVGLIKELGLKVVGVFEHPGGPPAVLFELPDGRLLLAESAGGSAGGSAGGS [r10_210_TrMRF],0.381 ± 0.045
4,SAGGSAGGSAGTLRLEVELKLRVRNPATREWQEVTLRLEVEFEPAPPVLVRDANGRLLLLSAGGSAGGSAGG [r11_307_TrROS_Hall],1.68 ± 0.024
5,SIFRIRMPGNREFRIFIPPDGMVNVSMPNGKKHTHPFKDKEDAKEIADVLSKHFPNMPVEIEPIPPDDIKSA [r9_1206_TrROS],1.26 ± 0.11
6,SAGGVPVSVEVDPRGEVTITNPVNGSSLVIPVPPDAEVTVVSLPPSSVTVRVTVGGEERDIVLPPSSVSAGG [r19_309_JUSTAS],0.587 ± 0.023
7,SAGGSAGGSSPLIEKLRKDPNVTKIEIDTVKNTTYIYTPNKIYIINSKGEIEKVEEVSPEILKSAGGSAGGS [r12_895_JUSTAS],0.743 ± 0.067
8,SAGGSAGGSKKKTIVILVPPGMSVDAIKKKLKELGIKVKIVPAPPVKVKVDEKTNELKVEKVTSAGGSAGGS [r12_80_TrROS_Hall],0.874 ± 0.059
9,SAGGSAGGPVWKIRFPDDGKPYEFHINPNHGMIEVEDPKDGEPKGTVPMPINQLLEKGMEVEPVSAGGSAGG [r6_832_TrROS],-0.769 ± 0.28
10,SAGGSAGGSMSPSSSYTIEKVSEDPSRGVITLKITYPTGESITLKLSPADEEKAEEEAKKLLESAGGSAGGS [r20_167_JUSTAS],1.68 ± 0.04
11,SKMKIKIEVEKVEDGYLKITITAESKEEAEKAIKELAKKLFGIEEVKVEYDKETKKITVEIIIRPPGEKVSA [r9_1120_TrROS_Hall],2 ± 0.17
12,SAGKKKKIKVKIEIRVKKKYKTKDGKEVEEKEETITVEIEMTLEELKEAIKKLPENVEITKITKIEKESAGG [r19_114_TrROS_Hall],1.58 ± 0.11
13,SAGGSAGGSGMEKIVVEVKFPDGTVETYEFPAGVPVNIDPAVTGDVKITTLDPEGKTTEYVLKSAGGSAGGS [r12_380_JUSTAS],-0.0804 ± 0.046
14,SAGGPLTEEQLKEQAKQIKDQLAKEFADMNGFPVTEIDDVEVVPDGWISIEIEYPGMGMPYTITIPWSAGGS [r16_622_TrROS],0.887 ± 0.053
15,SAGGSHEYTHEYRIPGGYAIRIKTKWRFNPGNNNIQIEEPDIELVPLPPVPPPPVPPEDADKNGIPPDDSAG [r5_393_TrROS],1.19 ± 0.019
16,SAGGSAGGSAGGSDRVEVELIFKFPNGFYVVIKWEIDPDEPGKIEMEIAIFDPDGKPIWSAGGSAGGSAGGS [r4_297_TrROS],3.35 ± 0.2
17,SAGGSAGGSAPPGQQLRVRIRIYNPNNGEPKREREFPGMTVDDLKEWAQKNGWRIREIEVDSAGGSAGGSAG [r3_423_TrROS],0.559 ± 0.1
18,SAGALPPDQVVPIPVLVRLSEDDPELREAIERGEVVEFELPGPLRLLAEFEPLPEDLVLVTLYLEVPEGSAG [r5_223_TrMRF],1.28 ± 0.052
19,SAGFKIVDVEPTDGRLEITIPIDKPGDALMFMVPFPNAKITPDPNGKITITIPPGGWYMIMIRLKKDASAGG [r19_227_TrROS],2.33 ± 0.037
20,SKATVLPNGEVVVTAEATFTLPDGTKVTVRVEVRIGPDGTLRPGVTVTVEPVPPPEKPLNIDFDPVTLPKSA [r9_1168_TrMRF],0.969 ± 0.13
21,SAGGSAGGSAGGSKLKIELNEDGTLRIVNEDTNEVYEIKLELPPPPPVETEVKYVSLEDLSAGGSAGGSAGG [r11_352_TrROS_Hall],0.604 ± 0.18
